PMC3182926

B1: Tri6-1 (dsDNA)
DNA 1: GGGTCTGAAAGGCCTGGCAGGCCTGACAGGAGTG
DNA 2: CACTCCTGTCAGGCCTGCCAGGCCTTTCAGACCC
B2: Tri6-3 (dsDNA)
DNA 1: GGCAGGCCTGACAGGAGTGATAAAATGTGAGAAGAG
DNA 2: CTCTTCTCACATTTTATCACTCCTGTCAGGCCTGCC
B3: Tri6-2 (dsDNA)
DNA 1: CTCAGCAGGATGAACAAGGGGTCTGAAAGGCCTGGC
DNA 2: GCCAGGCCTTTCAGACCCCTTGTTCATCCTGCTGAG

Each binder was assayed against Tri6 (Fusarium graminearum (PH-1; NRRL 31084?), UniProt Q9C1A9 1-218) (assay: EMSA). Details: protein: recombinant; tags: His (pDEST17; Methods EMSA text says Tri6-HA recombinant protein); label: 32P 5' end.

Row | Binder | binding result
1 | B1 | no binding
2 | B2 | binds
3 | B3 | no binding
